Reference: the nanobody polyreactivity screen of Harvey et al. (2022)

Assay: yeast display, Sf9 membrane polyspecificity reagent, FACS + sequencing; frameworks hold sequencing errors
Outline: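 In a synthetic yeast display library (Saccharomyces cerevisiae BJ5465), nanobody expression was induced with galactose for 36–48 hours. FACS gates were set low and high (top ~1%) using anti-HA fluorescence for expression and streptavidin fluorescence for binding of the Sf9 membrane reagent. Each polyreactivity label is drawn from the gate of origin.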

Row | Sequence | polyreactivity (PSR sort gate)
1 | QVQLVESGGGLVQAGGSLRLSCAASGLILGVYTMGWYRQAPGKEREFVASINFGGGSTYYADSVKGRFTISRDNAKNTVYLQMNSLKPEDTAVYYCNARSLGGGTRLYSYDYWGQGTQVTVSS | low polyreactivity
2 | QVQLVESGGGLVQAGGSLRLSCAASGLILGYYAMGWYRQAPGKERELVATIRRGASTFYADSVKGRFTISRDNAKNTVYLQLNSLKPEDTAVYYCAADTERSLAGGLYYWGQGTQVNVSS | low polyreactivity
3 | QVQLVESGGGLVQAGGSLRLSCAASGLILHINTMGWYRQAPGKERELVAAISWSGDSTYYSDSVKGRFTISRDNAKNTVYLQKNSLKPDDSAVYYGAADYWYFYTPYSYEYGYWGQGTQVTVSS | high polyreactivity
4 | QVQLVESGGGLVQAGGSLRLSCAASGLILHKYAMGGSRQAPGKERELVASINSGANTNYADSVKGRFTISRDNAKNTVYLQMNSLKPEDTAVYYCNADPGFRSGDYGYSSFDYWGQGTQVTVSS | low polyreactivity
5 | QVQLVESGGGLVQAGGSLRLSCAASGLILKYYAMGWYRQAPGKEREFVAAITRRGGITYYADSVKGRFTISRDNAKNTVYLQMNSLKPEDTAVYYCAADPKLGSLAYWRYSYPLYDYWGQGTQVTVSS | low polyreactivity
6 | QVQLVESGGGLVQAGGSLRLSCAASGLILSSNTMGWYRQAPGKERELVARIRRNDGNTYYADSVKGRFTISRDNAKNTVYLQMNSLKPEDTAVYYCAQYLAIGYYWGQGTQVTVSS | low polyreactivity
7 | QVQLVESGGGLVQAGGSLRLSCAASGLILYTYAMGCYRQAPGKERELVAAINSGGRTYYADSVKGRFTISRDNAKNTVYLQMNSLKPEDTAVYYCAADYGSRVRGFNYWGQGTQVTVSS | low polyreactivity
8 | QVQLVESGGGLVQAGGSLRLSCAASGLILYYYTIGWYRQAPGKERELVAAINSGGNTYYADSVKGRFTISRDNAKNTVYLQMNSLKPEDTAVYYCNAYRVRYKRSYDYWGQGTQVTVSS | high polyreactivity
9 | QVQLVESGGGLVQAGGSLRLSCAASGLISESYAMGWYRPAPGKERELVAAISSGGSTYYADSVKGRFTISRDNAKNTVYLQMNSLKPEDTAVYYCNASGYKYTYGHAYYYAVDYWGQGTQVTVSS | low polyreactivity
10 | QVQLVESGGGLVQAGGSLRLSCAASGLISVIYAMGWYRQAPGKERELVAAISWRGANTYYADSVKGRFTISRDNAKNTVYLQMNSLKPEDTAVYYCNAVLYVWFAPYRYDYWGQGTQVTVSS | high polyreactivity
11 | QVQLVESGGGLVQAGGSLRLSCAASGLMFSYYAMGWYRQAPGKERELVAAISWNGGSTYYADSVKGRFTISRDNAKNTVYLQMNSLKPEDTAVYYCAVRLDLGWYYYWGQGTQVTVSS | high polyreactivity
12 | QVQLVESGGGLVQAGGSLRLSCAASGLNCKTYTMGWDRQAPGKEREFVAAITTSGGSTYYADSVKGRFTISRDNAKNTVYLQMNSLKPEDTAVYYCDAVWCKSFQGSSYGMNYWGQGTLVTVSS | high polyreactivity
13 | QVQLVESGGGLVQAGGSLRLSCAASGLNFRRNAMRWYRQAPGKERELVAVIDRGGRTNYADSVKGRFTISRDNAKTTVYLQMNSLKPEDTAVYYCAKRYASTSGYWGQGTQVTVSS | high polyreactivity
14 | QVQLVESGGGLVQAGGSLRLSCAASGLPFKSNAMGWYRQAPGKERELVASISKRGGTTYYADSVKGRFTISRDNAKNTVYLQIKSLKPEDTAVYYCAAQSRATTYSWWTGSDYWGQGTEVTVSS | high polyreactivity
15 | QVQLVESGGGLVQAGGSLRLSCAASGLSLQYYAMGWYSQAPGKDRELVAAISSRGVSTYYADSVKGRFTISRDNAKNTVYLQMNSLKPEETAVDYCNARQWRFGFVARGGKYNYWGQGTQVTVSS | high polyreactivity
16 | QVQLVESGGGLVQAGGSLRLSCAASGLSSLRMLWDGLDRRLGKKGSWLPLITSGGDSTNYADSVKGRFTISRDNAKNTVYLQMNSLKPEDTAVYYCAADLDYPYGYWGQGTQVTVSS | low polyreactivity

Row | Sequence | polyreactivity (PSR sort gate)
17 | QVQLVESGGGLVQAGGSLRLSCAASGLTCSRYAMGWYRQAPGKERELVASISQGGGSTYYADSVKGRFTISRDNAKNTVYLQMTSLKPEDTAVYYCAASWYYSLQRYGYWGQGTQVTVSS | high polyreactivity
18 | QVQLVESGGGLVQAGGSLRLSCAASGLTCSYYAMGWYRQAPGQERELVAAISITGSTNYADSVKGRFTISRDNAKNTVYLQMNSLKPEDTAVYYCAARVRSGTGVGFDYWGQGTQVTVSS | high polyreactivity
19 | QVQLVESGGGLVQAGGSLRLSCAASGLTDVRYAMGWYRQAPGKEREFVAAINWRGTRTYADSVKGRYTISRDNAKNTVYLQMNSLKPEDTAVYYCAARTLYFSKYVYWGQGTQVTVSS | high polyreactivity
20 | QVQLVESGGGLVQAGGSLRLSCAASGLTFADYAMGWYRQAPGKERELVAAISSSDTSTYYADSVKGRFTISRDNAKNTVYLQMNSLKPEDTAVYYCAADEGYVWPYYGWGFGKYDYWGQGTQVTVSS | low polyreactivity
21 | QVQLVESGGGLVQAGGSLRLSCAASGLTFAINTMGLNRQAPGKESELVAAITGSGGSTYYADSVKGRFTISRDNAKYTVYLQMKSLKPEDTAVYYCAAELLYVQGYAMDFWGQGTQVTVSS | low polyreactivity
22 | QVQLVESGGGLVQAGGSLRLSCAASGLTFARNAMGWYRQAPGKERELVAAISSRGGSTYYADSVKGRFTISRDNAKNTVYLQMNSLKPEDTAVYYCATSQVLRRDRYDYWGQGTQVTVSS | high polyreactivity
23 | QVQLVESGGGLVQAGGSLRLSCAASGLTFAVYAMGWYRQAPGKVRELVAAITYSGSRTYYADSVKGRFTISRDNAKNTVYLQMNSLKPEVTAVYYCNALYRRDIKFYYWGQGTQVTVSS | high polyreactivity
24 | QVQLVESGGGLVQAGGSLRLSCAASGLTFAYYAMGWYSQAPGKEREMVASINSGGSTNYADSVKGRFTISRDNAKNTVYLLMNSLKPEDTAVYYCAADWATWWYTYDFWGQGTQVTVSS | high polyreactivity
25 | QVQLVESGGGLVQAGGSLRLSCAASGLTFAYYVMGWYRQAPGKERELVATITRGGDTNYADSVKGRFTISRDNAKNTVYLQINSLKPEDTAVYYCAAGSYRDRTFAYNYWGQGTQVTVSA | high polyreactivity
26 | QVQLVESGGGLVQAGGSLRLSCAASGLTFDANAMGWYRQAPGKERELVATITSGGSTNYADSVKGRFTISRDNAKNTVYLQMNSLKPEDTAVYYCARGTSTGTYYWYGYWGHGTQVTVSS | low polyreactivity
27 | QVQLVESGGGLVQAGGSLRLSCAASGLTFDVYTMVWYRQAPGKERELVATISETYYADSVKGRFTISRDNAKNTVYLQMNSLKPEDTAVYYCAANGFKAQYRDIVYDYGYWGQGTQVTVSS | low polyreactivity
28 | QVQLVESGGGLVQAGGSLRLSCAASGLTFDYNAMGWYRQAPGKERELVAAITSGGSTKYADSVKGRFTISRDNAKNTVYLQMNSLKPEDTAVYYCAATAYVWYYLSYTYYYWGQGTQVTVSS | low polyreactivity
29 | QVQLVESGGGLVQAGGSLRLSCAASGLTFDYYAMGWYRQAPGKERELVAAISISGDRTYYADSVKGRFTISRDNAKNTVYLQMNSLKPEDTAVYYCNARYPGSFRDDYWGQGTQVTVSS | high polyreactivity
30 | QVQLVESGGGLVQAGGSLRLSCAASGLTFFGYAMGWYRQAPGKERELVAPISSSGTRTYYADSVKGRFTISRDNAKNTVYLQMNSLKPEDTAVYYCATVRYQEYDYWGQGTQVTVSS | high polyreactivity
31 | QVQLVESGGGLVQAGGSLRLSCAASGLTFFPNVMGWYRQAPGKERELVAAISRSGDRTFYADSVKGRFTISRDNAKNTVYLQMNSLKPEDTAVYYCAADSGSSRSRRGYEYWGQGTQVTVSS | high polyreactivity
